{"source": "paper PMC4939007", "about": "“The GH51 α-L-arabinofuranosidase from Paenibacillus sp. THS1 is multifunctional, hydrolyzing main-chain and side-chain glycosidic bonds in heteroxylans” (Biotechnology for Biofuels, 2016)", "assay_in_all_cases": "purified protein", "key": {"[1]": {"system": "O=[N+]([O-])c1ccc(O[C@@H]2OC[C@@H](O)[C@H](O)[C@H]2O)cc1", "details": "50 mM sodium phosphate pH 6.5, 1 mg/mL BSA, 60 °C, 0–40 mM substrate, authors' caution: maximum substrate below 2 x KM"}, "[2]": {"system": "O=[N+]([O-])c1ccc(O[C@@H]2O[C@@H](CO)[C@H](O)[C@H]2O)cc1", "details": "50 mM sodium phosphate pH 6.5, 1 mg/mL BSA, 60 °C, 0–5 mM substrate"}, "[3]": {"system": "O=[N+]([O-])c1ccc(O[C@@H]2O[C@@H]([C@H](O)CO)[C@H](O)[C@H]2O)cc1", "details": "50 mM sodium phosphate pH 6.5, 1 mg/mL BSA, 60 °C, 0–14 mM substrate, authors' caution: maximum substrate below 2 x KM"}}, "data": [{"substance": "THSAbf (Paenibacillus sp. HanTHS1)", "values": [{"measurement": "Km", "setting": "[1]", "result": "23.8 ± 4.1", "unit": "mM"}, {"measurement": "kcat", "setting": "[1]", "result": "10.6 ± 0.9", "unit": "s⁻¹"}, {"measurement": "kcat/Km", "setting": "[1]", "result": 440, "unit": "M⁻¹ s⁻¹"}, {"measurement": "Km", "setting": "[2]", "result": "0.31 ± 0.1", "unit": "mM"}, {"measurement": "kcat", "setting": "[2]", "result": "328 ± 23", "unit": "s⁻¹"}, {"measurement": "kcat/Km", "setting": "[2]", "result": "1.05e+06", "unit": "M⁻¹ s⁻¹"}, {"measurement": "Km", "setting": "[3]", "result": "8.6 ± 0.9", "unit": "mM"}, {"measurement": "kcat", "setting": "[3]", "result": "327 ± 20", "unit": "s⁻¹"}, {"measurement": "kcat/Km", "setting": "[3]", "result": 38000, "unit": "M⁻¹ s⁻¹"}]}]}
